Where two headings read alike, the source gives them in different places. Each block holds one molecule with its values, some of them ahead of it.
How the values were obtained:
[1] = molecular target: soluble human C3b (human) (UniProt P01024)
[2] = molecular target: T1, C4b (human, UniProt P0C0L4)
T1 sequence: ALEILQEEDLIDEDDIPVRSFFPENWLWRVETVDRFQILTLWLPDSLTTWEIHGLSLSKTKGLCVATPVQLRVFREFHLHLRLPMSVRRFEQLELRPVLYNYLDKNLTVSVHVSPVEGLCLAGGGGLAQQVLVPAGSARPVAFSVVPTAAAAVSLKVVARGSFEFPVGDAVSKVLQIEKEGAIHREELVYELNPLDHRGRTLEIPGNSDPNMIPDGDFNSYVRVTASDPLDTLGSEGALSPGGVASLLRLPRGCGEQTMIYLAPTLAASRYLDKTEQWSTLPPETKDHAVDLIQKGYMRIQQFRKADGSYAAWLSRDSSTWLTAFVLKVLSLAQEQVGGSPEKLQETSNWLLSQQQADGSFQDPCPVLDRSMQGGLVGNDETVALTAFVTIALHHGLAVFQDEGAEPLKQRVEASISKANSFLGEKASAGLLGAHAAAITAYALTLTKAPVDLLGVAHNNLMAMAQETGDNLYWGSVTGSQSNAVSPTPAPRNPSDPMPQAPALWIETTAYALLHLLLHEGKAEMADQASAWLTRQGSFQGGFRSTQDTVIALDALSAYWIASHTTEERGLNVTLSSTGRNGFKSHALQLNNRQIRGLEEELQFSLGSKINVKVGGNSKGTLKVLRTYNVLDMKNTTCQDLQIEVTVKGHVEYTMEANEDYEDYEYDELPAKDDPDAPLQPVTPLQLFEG

[3] = molecular target: CFI-HSA (human serum albumin fused to the N-terminal end of wild type CFI) (human)
[4] = molecular target: T2, human C4b (human) (UniProt P0C0L5)
T2 sequence: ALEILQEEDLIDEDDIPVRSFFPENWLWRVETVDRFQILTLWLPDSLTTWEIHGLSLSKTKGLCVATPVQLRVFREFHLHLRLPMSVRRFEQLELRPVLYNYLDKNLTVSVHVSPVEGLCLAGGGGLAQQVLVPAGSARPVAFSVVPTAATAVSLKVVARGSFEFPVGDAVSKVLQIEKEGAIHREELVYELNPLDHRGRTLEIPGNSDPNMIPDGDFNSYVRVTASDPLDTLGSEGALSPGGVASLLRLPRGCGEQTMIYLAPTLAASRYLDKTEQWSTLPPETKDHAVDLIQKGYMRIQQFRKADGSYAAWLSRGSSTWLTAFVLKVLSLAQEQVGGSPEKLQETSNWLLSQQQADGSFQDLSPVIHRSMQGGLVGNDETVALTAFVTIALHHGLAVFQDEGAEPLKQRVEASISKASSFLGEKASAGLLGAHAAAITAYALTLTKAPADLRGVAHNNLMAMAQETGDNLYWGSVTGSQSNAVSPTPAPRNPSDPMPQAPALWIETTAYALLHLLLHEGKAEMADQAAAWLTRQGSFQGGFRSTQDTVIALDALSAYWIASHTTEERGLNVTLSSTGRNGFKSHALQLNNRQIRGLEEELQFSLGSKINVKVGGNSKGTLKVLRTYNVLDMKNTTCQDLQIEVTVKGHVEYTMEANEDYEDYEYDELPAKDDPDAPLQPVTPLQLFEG

[5] = molecular target: soluble human C3b (human) (UniProt P01024); remark: listed apart in the source
[6] = molecular target: T3, C3b (human, UniProt P01024)
[7] = molecular target: T3, C3b; remark: listed apart in the source
[8] = molecular target: T3, C3b; remark: listed apart in the source
[9] = molecular target: soluble human C3b (human) (UniProt P01024); remark: listed apart in the source
[10] = molecular target: T3, C3b; remark: listed apart in the source
[11] = molecular target: T2, human C4b (human); remark: listed apart in the source
[12] = molecular target: soluble human C3b (human) (UniProt P01024); remark: listed apart in the source
[13] = molecular target: T3, C3b; remark: listed apart in the source
[14] = molecular target: T1, C4b; remark: listed apart in the source
[15] = molecular target: T3, C3b; remark: listed apart in the source
[16] = molecular target: T3, C3b; experiment: cell-based or functional assay
[17] = molecular target: T1, C4b; experiment: cell-based or functional assay

Molecule: CFI-HSA (human serum albumin fused to the N-terminal end of wild type CFI)
C3b-enriched AP hemolytic assay IC50 [1]: 26.4 nM

Molecule: recombinant human furin (from UniProt P09958) (enzyme)
activation (cleavage) of CFI-HSA by furin [3]: > 90%

Molecule: CFI-HSA variant D425A (enzyme)
C4b Screen Ref Fold (fold vs CFI-HSA wild type) [4]: 2.71 | iC3b Screen Ref Fold (fold vs CFI-HSA wild type) [5]: 1.07 | C3b cleavage rate, kmut/kwt [6]: 1 | C3b cleavage, % Activity [7]: 103% | C3dg formation in activated human serum (TRIFMA), EC50 WT/EC50Variant [8]: 1.7

Molecule: CFI-HSA variant Y408L; N531G; P535G with hCR1; CCP15; CCP16; CCP17 C-terminal fusion (enzyme)
C4c No Cofactor EC50 (C4b cleavage, C4c ELISA) [2]: 50.1 nM

Molecule: CFI-HSA variant E457G; N531G; P535G with hCR1; CCP15; CCP16; CCP17 C-terminal fusion (enzyme)
C4c No Cofactor EC50 (C4b cleavage, C4c ELISA) [2]: 44.8 nM

Molecule: CFI-HSA variant Y408L; E457G; R462K; F464Y; N531G with hCR1; CCP15; CCP16; CCP17 C-terminal fusion (enzyme)
C4c No Cofactor EC50 (C4b cleavage, C4c ELISA) [2]: 104 nM

Molecule: CFI-HSA variant E457G + CR1(CCP1-3) (from UniProt P17927) (enzyme)
AP IC50, alternative pathway hemolysis [13]: 86 nM | CP IC50, classical pathway hemolysis of sensitised sheep red cells [14]: 122 nM

Molecule: HSA + CfI + GGSSGG (SEQ ID NO: 6) + CR1(ccp15-17) (enzyme)
C3c No Cofactor EC50 (C3b cleavage, iC3b ELISA) [15]: 33.7 nM | C4c No Cofactor EC50 (C4b cleavage, C4c ELISA) [2]: 63.5 nM

Molecule: CFI-HSA variant P535G with hCR1; CCP15; CCP16; CCP17 C-terminal fusion (enzyme)
C4c No Cofactor EC50 (C4b cleavage, C4c ELISA) [2]: 160 nM

Molecule: CFI-HSA variant E457G; P535G with hCR1; CCP15; CCP16; CCP17 C-terminal fusion (enzyme)
C4c No Cofactor EC50 (C4b cleavage, C4c ELISA) [2]: 35.9 nM

Molecule: CFI-HSA (E416A; D425R; E457G; N531G variant) (enzyme)
Fold-decrease EC50 (iC3b) vs. CFI WT [9]: 8.03 fold

Molecule: CFI-HSA variant E457G; E461Q; N531G with hCR1; CCP15; CCP16; CCP17 C-terminal fusion (enzyme)
C4c No Cofactor EC50 (C4b cleavage, C4c ELISA) [2]: 77.6 nM

B1: Plasma derived, wild type human CFI (enzyme)
chain: KVTYTSQEDLVEKKCLAKKYTHLSCDKVFCQPWQRCIEGTCVCKLPYQCPKNGTAVCATNRRSFPTYCQQKSLECLHPGTKFLNNGTCTAEGKFSVSLKHGNTDSEGIVEVKLVDQDKTMFICKSSWSMREANVACLDLGFQQGADTQRRFKLSDLSINSTECLHVHCRGLETSLAECTFTKRRTMGYQDFADVVCYTQKADSPMDDFFQCVNGKYISQMKACDGINDCGDQSDELCCKACQGKGFHCKSGVCIPSQYQCNGEVDCITGEDEVGCAGFASVTQEETEILTADMDAERRRIKSLLPKLSCGVKNRMHIRRKRIVGGKRAQLGDLPWQVAIKDASGITCGGIYIGGCWILTAAHCLRASKTHRYQIWTTVVDWIHPDLKRIVIEYVDRIIFHENYNAGTYQNDIALIEMKKDGNKKDCELPRSIPACVPWSPYLFQPNDTCIVSGWGREKDNERVFSLQWGEVKLISNCSKFYGNRFYEKEMECAGTYDGSIDACKGDSGGPLVCMDANNVTYVWGVVSWGENCGKPEFPGVYTKVANYFDWISYHVGRPFISQYNV
AP IC50, alternative pathway hemolysis [16]: 6.05 nM | CP IC50, classical pathway hemolysis of sensitised sheep red cells [17]: 135 nM | C4b cleavage EC50 [11]: 385 nM | C3b cleavage EC50 [12]: 25.3 nM | C3b-enriched AP hemolytic assay IC50 [1]: 12.9 nM

Continued, values first:

C4c No Cofactor EC50 (C4b cleavage, C4c ELISA) [2]: 57.1 nM
Molecule: CFI-HSA variant Y408L; N531G with hCR1; CCP15; CCP16; CCP17 C-terminal fusion (enzyme)

C4c No Cofactor EC50 (C4b cleavage, C4c ELISA) [2]: 76.2 nM
Molecule: CFI-HSA variant N531G with hCR1; CCP15; CCP16; CCP17 C-terminal fusion (enzyme)

C4b Screen Ref Fold (fold vs CFI-HSA wild type) [4]: 0.69 | iC3b Screen Ref Fold (fold vs CFI-HSA wild type) [5]: 1.46 | C3b cleavage rate, kmut/kwt [6]: 2 | C3b cleavage, % Activity [7]: 104% | C3dg formation in activated human serum (TRIFMA), EC50 WT/EC50Variant [8]: 4.2
Molecule: CFI-HSA variant D425R (enzyme)

Fold-decrease EC50 (iC3b) vs. CFI WT [9]: 3.67 fold
Molecule: CFI-HSA (E416A; N531G variant) (enzyme)

C4c No Cofactor EC50 (C4b cleavage, C4c ELISA) [2]: 50.3 nM
Molecule: CFI-HSA variant N531G; P535A with hCR1; CCP15; CCP16; CCP17 C-terminal fusion (enzyme)

C3dg formation (TRIFMA), EC50 against wild type (FIG. 10) [10]: 18 fold | C3b cleavage rate, kmut/kwt [6]: 3 | C3b cleavage, % Activity [7]: 120% | C3dg formation in activated human serum (TRIFMA), EC50 WT/EC50Variant [8]: 26.2
Molecule: CFI-HSA variant N531G + P535A (enzyme)

Fold-decrease EC50 (iC3b) vs. CFI WT [9]: 3.86 fold
Molecule: CFI-HSA (E457G; N531G variant) (enzyme)

C4b cleavage EC50 [11]: 365 nM | C3b cleavage EC50 [12]: 25.5 nM
Molecule: CFI-HSA (human serum albumin fused to the N-terminal end of wild type CFI) (enzyme)

C4c No Cofactor EC50 (C4b cleavage, C4c ELISA) [2]: 156 nM
Molecule: CFI-HSA variant Y408L; E457G; N531G with hCR1; CCP15; CCP16; CCP17 C-terminal fusion (enzyme)

C3b cleavage rate, kmut/kwt [6]: 3 | C3b cleavage, % Activity [7]: 123% | C3dg formation in activated human serum (TRIFMA), EC50 WT/EC50Variant [8]: 0.6
Molecule: CFI-HSA variant Y408L + N531G (enzyme)

Fold-decrease EC50 (iC3b) vs. CFI WT [9]: 0.79 fold
Molecule: CFI-HSA (hCR1; CCP15; CCP16; CCP17 C-terminal fusion) (enzyme)

C4c No Cofactor EC50 (C4b cleavage, C4c ELISA) [2]: 106 nM
Molecule: CFI-HSA variant Y408L; E457G; E461Q; R462K; N531G with hCR1; CCP15; CCP16; CCP17 C-terminal fusion (enzyme)
